According to patent EP2878677A1, “Activators of protein phosphatase 5” (Deutsches Zentrum für Neurodegenerative Erkrankungen e.V. …, priority 2013, dated 2015):

Biological target: YFP-Hsp90/DAF-21 (N-terminal YFP-tagged Hsp90) (C. elegans) (UniProt Q18688)
Experiment: sedimentation velocity AUC with fluorescence detection; 300 nM YFP-Hsp90, 3 uM PPH-5; YFP-Hsp90 alone 6.8 S

## PPH-5 (C. elegans protein phosphatase 5) (enzyme)
  sedimentation coefficient (s20,w) of YFP-Hsp90 in complex with PPH-5: 8.9 S
